In publication PMC6624267 one finds stoichiometry N data, which are given here for one substance.

For the assay, the target named is CARD11^8–172 (human) (UniProt Q9BXL7). Description: SEC-MALS; CARD11^8–172 alone; measured 36.5 kDa against 39.4 kDa expected for a dimer.

“CARD11^8–172 (from UniProt Q9BXL7 8-172) (domain or fragment)” showed a stoichiometry N of 2.
